This assay deals with bovine fetuin (bovine) (UniProt P12763). Description: Corning Epic label-free (resonant waveguide grating, Enspire reader).

Substance “recombinant hemagglutinin (rHA) of A/Brisbane/59/2007 (H1N1) (natural protein; modification not given)” gave a response (change in wavelength) at 20 μg/ml rHA of 80 pm.

“recombinant hemagglutinin (rHA) of A/Hangzhou/3/2013 (H7N9) (natural protein)” registered a response (change in wavelength) at 20 μg/ml rHA of 80 pm.

On to “recombinant hemagglutinin (rHA) of B/Brisbane/60/2008 (natural protein)”, for which the response (change in wavelength) at 20 μg/ml rHA was determined as 140 pm.

Source of the values: paper PMC4359790.
